From IntAct's records for PubMed 26592460

B1: "NAD(+) hydrolase SARM1" (Homo sapiens), Q6SZW1 (parent)
chain: MVLTLLLSAYKLCRFFAMSGPRPGAERLAVPGPDGGGGTGPWWAAGGRGPREVSPGAGTEVQDALERALPELQQALSALKQAGGARAVGAGLAEVFQLVEEAWLLPAVGREVAQGLCDAIRLDGGLDLLLRLLQAPELETRVQAARLLEQILVAENRDRVARIGLGVILNLAKEREPVELARSVAGILEHMFKHSEETCQRLVAAGGLDAVLYWCRRTDPALLRHCALALGNCALHGGQAVQRRMVEKRAAEWLFPLAFSKEDELLRLHACLAVAVLATNKEVEREVERSGTLALVEPLVASLDPGRFARCLVDASDTSQGRGPDDLQRLVPLLDSNRLEAQCIGAFYLCAEAAIKSLQGKTKVFSDIGAIQSLKRLVSYSTNGTKSALAKRALRLLGEEVPRPILPSVPSWKEAEVQTWLQQIGFSKYCESFREQQVDGDLLLRLTEEELQTDLGMKSGITRKRFFRELTELKTFANYSTCDRSNLADWLGSLDPRFRQYTYGLVSCGLDRSLLHRVSEQQLLEDCGIHLGVHRARILTAAREMLHSPLPCTGGKPSGDTPDVFISYRRNSGSQLASLLKVHLQLHGFSVFIDVEKLEAGKFEDKLIQSVMGARNFVLVLSPGALDKCMQDHDCKDWVHKEIVTALSCGKNIVPIIDGFEWPEPQVLPEDMQAVLTFNGIKWSHEYQEATIEKIIRFLQGRSSRDSSAGSDTSLEGAAPMGPT

Variants of: B1
Details: with myd88_human MYD88, Q99836
myd88_human MYD88, Q99836, sequence (Q99836 whole entry): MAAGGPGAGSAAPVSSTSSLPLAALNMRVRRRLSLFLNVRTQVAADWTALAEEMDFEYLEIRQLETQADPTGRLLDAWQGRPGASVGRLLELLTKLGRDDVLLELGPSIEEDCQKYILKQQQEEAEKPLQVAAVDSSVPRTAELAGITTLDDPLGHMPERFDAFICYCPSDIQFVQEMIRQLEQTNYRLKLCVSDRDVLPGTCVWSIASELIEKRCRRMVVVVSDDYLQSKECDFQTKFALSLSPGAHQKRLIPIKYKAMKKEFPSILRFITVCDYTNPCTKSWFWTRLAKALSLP

**Q.** G601A was tested. Which “effect of a mutation on the interaction” value did it give?
**A.** Its value is “disrupting interaction strength”.

Variants of: B1
Details: with tcam1_human TICAM1, Q8IUC6
tcam1_human TICAM1, Q8IUC6, sequence (Q8IUC6 whole entry): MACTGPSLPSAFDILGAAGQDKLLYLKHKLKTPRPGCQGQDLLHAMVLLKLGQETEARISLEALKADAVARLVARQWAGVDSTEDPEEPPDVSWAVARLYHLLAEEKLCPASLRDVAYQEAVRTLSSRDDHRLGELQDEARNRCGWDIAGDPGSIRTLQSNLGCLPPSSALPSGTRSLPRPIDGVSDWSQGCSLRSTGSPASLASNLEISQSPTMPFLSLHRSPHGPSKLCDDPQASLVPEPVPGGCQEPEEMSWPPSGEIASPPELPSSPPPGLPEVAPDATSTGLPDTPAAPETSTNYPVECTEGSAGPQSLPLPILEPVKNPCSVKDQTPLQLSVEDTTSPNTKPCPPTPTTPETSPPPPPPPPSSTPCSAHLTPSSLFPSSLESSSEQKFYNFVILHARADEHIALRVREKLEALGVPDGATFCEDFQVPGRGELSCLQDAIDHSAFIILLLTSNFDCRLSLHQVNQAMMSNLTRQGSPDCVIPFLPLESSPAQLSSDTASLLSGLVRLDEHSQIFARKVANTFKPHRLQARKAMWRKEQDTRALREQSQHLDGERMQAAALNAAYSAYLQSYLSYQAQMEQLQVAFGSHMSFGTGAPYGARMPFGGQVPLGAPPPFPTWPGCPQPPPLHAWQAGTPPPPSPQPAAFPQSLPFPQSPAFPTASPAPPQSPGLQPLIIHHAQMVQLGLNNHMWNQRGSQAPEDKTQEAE

**Q.** With G601A as the variant, how does the “effect of a mutation on the interaction” value read?
**A.** Its value is “disrupting interaction strength”.

Variants of: B1
Details: with tirap_human TIRAP

**Q.** For G601A, which “effect of a mutation on the interaction” value is on record?
**A.** Its value is “disrupting interaction strength”.

Variants of: B1
Details: with tcam2_human TICAM2, Q86XR7
tcam2_human TICAM2, Q86XR7, sequence (Q86XR7 whole entry): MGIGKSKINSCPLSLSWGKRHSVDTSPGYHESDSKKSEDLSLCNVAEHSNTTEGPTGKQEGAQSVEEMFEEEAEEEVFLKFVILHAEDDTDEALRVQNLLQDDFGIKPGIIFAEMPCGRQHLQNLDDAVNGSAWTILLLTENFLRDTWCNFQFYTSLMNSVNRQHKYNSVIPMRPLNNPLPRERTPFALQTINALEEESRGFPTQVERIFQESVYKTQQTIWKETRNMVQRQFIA

**Q.** How did the “effect of a mutation on the interaction” value turn out when G601A was run?
**A.** The value was “disrupting interaction strength”.
